The values that follow come from the FLAb antibody collection (doi:10.7554/elife.23156).

The chains are these.
B1: scFv; the commonest letter at each place (parent)
chain 1: EVKLDETGGGLVQPGRPMKLSCVASGFTFSDYWMNWVRQSPEKGLEWVAQIRNKPYNYETYYSDSVKGRFTISRDDSKSSVYLQMNNLRVEDMGIYYCTGSYYGMDYWGQGTSVTVS
chain 2: DVVMTQTPLSLPVSLGDQASISCRSSQSLVHSNGNTYLRWYLQKPGQSPKVLIYKVSNRFSGVPDRFSGSGSGTDFTLKISRVEAEDLGVYFCSQSTHVPWTFGGGTKLEIK

Variants of B1 are the subject of the series “fluorescein”. In words: Kd (Tite-Seq). As to conditions: with fluorescein; format: scFv 4-4-20, heavy + light.
Variants of B1 are the subject of series [1]. Description: yeast surface expression (ratio to wild type); higher = more expressed. As to conditions: format: scFv 4-4-20, heavy + light.

chain 1 S101A Y103E: the Kd with fluorescein turned out to be 0.00966 µM. Besides, the yeast surface expression in series [1] amounted to 1.23.
In the case of chain 1 S101K D106M, the Kd with fluorescein was at least 10 µM. For the same variant, the yeast surface expression in series [1] was determined as 0.229.
Consider chain 1 S101K D106V, for which the Kd in the series with fluorescein was at least 10 µM. Besides, in series [1], the yeast surface expression was determined as 0.257.
Consider chain 1 S101H D106C, for which the Kd in the series with fluorescein is at least 10 µM. Further, the yeast surface expression in series [1] was found to be 0.467.
Regarding chain 1 S30V D31V W36E, in the series with fluorescein, the Kd was at least 10 µM. The yeast surface expression in series [1] stood at 1.33.
Consider chain 1 S101K Y107V, for which, in the series with fluorescein, the Kd was at least 10 µM. Further, the yeast surface expression in series [1] is 0.507.
For chain 1 S101L M105L, the Kd with fluorescein was at least 10 µM. Further, the yeast surface expression in series [1] turned out to be 0.334.
In the case of chain 1 S101L M105F, the Kd with fluorescein was at least 10 µM. Moreover, the yeast surface expression in series [1] stood at 0.521.
For the variant chain 1 S101I W108E, the Kd in the series with fluorescein is at least 10 µM. Besides, the yeast surface expression in series [1] stood at 0.21.
chain 1 S101F G109S: in the series with fluorescein, the Kd was at least 10 µM. For the same variant, the yeast surface expression in series [1] amounted to 0.424.
chain 1 S101P W108T: in the series with fluorescein, the Kd is at least 10 µM. Besides, the yeast surface expression in series [1] was found to be 0.168.
As for chain 1 S101N G109N, the dissociation constant Kd in the series with fluorescein was at least 10 µM. Besides, the yeast surface expression in series [1] stood at 0.267.
Regarding chain 1 S101N G109D, the Kd with fluorescein is at least 10 µM. In addition, in series [1], the yeast surface expression stood at 0.316.
Taken in the same sequence, the figures for chain 1 S30Y M34H were at least 10 µM and 0.38.
Consider chain 1 S30Y M34A, for which, in the series with fluorescein, the Kd is 0.0534 µM. The yeast surface expression in series [1] turned out to be 0.483.
Taken in the same sequence, the figures for chain 1 S101I G109I were at least 10 µM and 0.219.
chain 1 S101R W108H: the dissociation constant (Kd) with fluorescein is at least 10 µM. Besides, the yeast surface expression in series [1] stood at 0.261.
With chain 1 S101R W108L, the Kd in the series with fluorescein was at least 10 µM. For the same variant, the yeast surface expression in series [1] worked out at 0.22.
In the case of chain 1 S101R W108V, the Kd in the series with fluorescein was at least 10 µM. In series [1], the yeast surface expression was found to be 0.24.
As for chain 1 S101R W108Q, the Kd in the series with fluorescein was at least 10 µM. For the same variant, the yeast surface expression in series [1] is 0.346.
With chain 1 S101Q G104V, the Kd with fluorescein was at least 10 µM. Besides, the yeast surface expression in series [1] was 0.296.
For the variant chain 1 S101Q G104R, in the series with fluorescein, the Kd is at least 10 µM. Moreover, the yeast surface expression in series [1] was determined as 0.384.
chain 1 S101Q G104P: the Kd with fluorescein is at least 10 µM. The yeast surface expression in series [1] is 0.539.
For the variant chain 1 S101G W108R, the equilibrium dissociation constant (Kd) with fluorescein is at least 10 µM. Moreover, the yeast surface expression in series [1] stood at 0.436.
Taken in the same sequence, the figures for chain 1 S101H Y102R were at least 10 µM and 0.96.
chain 1 S101L Y103Q: in the series with fluorescein, the Kd is at least 10 µM. Further, the yeast surface expression in series [1] worked out at 0.786.
In the case of chain 1 S101L Y103K, the Kd with fluorescein was at least 10 µM. Besides, the yeast surface expression in series [1] is 0.524.
Turning to chain 1 S101L Y103R, in the series with fluorescein, the Kd is at least 10 µM. Also, in series [1], the yeast surface expression worked out at 0.702.
As to chain 1 S101L Y103I, in the series with fluorescein, the Kd was at least 10 µM. The yeast surface expression in series [1] stood at 0.229.
Turning to chain 1 S101F W108S G109S, the Kd with fluorescein is at least 10 µM. Also, the yeast surface expression in series [1] is 0.242.
For chain 1 S101R Y107L, in that order: at least 10 µM and 0.862.
Turning to chain 1 S101R Y107C, in the series with fluorescein, the Kd is at least 10 µM. In addition, in series [1], the yeast surface expression came to 0.286.
With chain 1 S101R Y107I, the Kd with fluorescein is at least 10 µM. Besides, the yeast surface expression in series [1] worked out at 0.812.
For the variant chain 1 S101I Y102W, the Kd with fluorescein is at least 10 µM. Moreover, the yeast surface expression in series [1] is 0.303.
chain 1 S101I Y102M: the Kd with fluorescein is at least 10 µM. In addition, in series [1], the yeast surface expression came out at 0.621.
For the variant chain 1 S101I Y102L, the Kd in the series with fluorescein was at least 10 µM. Further, the yeast surface expression in series [1] came out at 0.376.
For chain 1 S101I Y102T, in that order: at least 10 µM and 0.614.
As to chain 1 S101I Y102V, the Kd with fluorescein is at least 10 µM. For the same variant, in series [1], the yeast surface expression worked out at 0.488.
In the case of chain 1 S101T M105T, the Kd with fluorescein is at least 10 µM. Also, the yeast surface expression in series [1] amounted to 0.928.
For chain 1 S101T M105S, in that order: at least 10 µM and 0.699.
On to chain 1 S101G Y102L, for which, in the series with fluorescein, the Kd is at least 10 µM. For the same variant, the yeast surface expression in series [1] is 1.06.
For chain 1 S101P G104T M105Y, the Kd in the series with fluorescein was at least 10 µM. The yeast surface expression in series [1] worked out at 0.208.
With chain 1 S30Y D31T, the Kd with fluorescein was 0.00265 µM. For the same variant, the yeast surface expression in series [1] came to 0.428.
On to chain 1 S30W D31V, for which the dissociation constant Kd in the series with fluorescein is at least 10 µM. Moreover, the yeast surface expression in series [1] stood at 0.463.
Taken in the same sequence, the figures for chain 1 S30W D31N were at most 0.000316 µM and 0.866.
In the case of chain 1 S30Y N35C, the Kd in the series with fluorescein is at least 10 µM. For the same variant, the yeast surface expression in series [1] came to 0.686.
Take chain 1 S101E G104K M105C: the Kd with fluorescein is at least 10 µM. Moreover, in series [1], the yeast surface expression was 0.346.
For the variant chain 1 S101E W108H, the Kd with fluorescein is at least 10 µM. The yeast surface expression in series [1] worked out at 0.374.
Taken in the same sequence, the figures for chain 1 S101E W108K were at least 10 µM and 0.375.
Regarding chain 1 S101E W108G, in the series with fluorescein, the Kd is at least 10 µM. In series [1], the yeast surface expression was 0.368.
For chain 1 S101H W108C, the Kd in the series with fluorescein is at least 10 µM. In addition, the yeast surface expression in series [1] turned out to be 0.28.
Taken in the same sequence, the figures for chain 1 S101H W108Y were at least 10 µM and 0.408.
As for chain 1 S101Q Y103L D106G, the Kd in the series with fluorescein was at least 10 µM. Besides, the yeast surface expression in series [1] amounted to 0.41.
For the variant chain 1 S101R G104P, in the series with fluorescein, the Kd was at least 10 µM. Moreover, in series [1], the yeast surface expression came to 0.361.
On to chain 1 S101R G104T, for which the Kd with fluorescein is at least 10 µM. For the same variant, the yeast surface expression in series [1] is 0.647.
For the variant chain 1 S30Y D31A N35A, the dissociation constant Kd in the series with fluorescein was at least 10 µM. The yeast surface expression in series [1] amounted to 0.451.
Turning to chain 1 S101T G104F, the Kd in the series with fluorescein was at least 10 µM. In addition, in series [1], the yeast surface expression amounted to 0.437.
Consider chain 1 S101Q Y102R, for which the Kd with fluorescein is at least 10 µM. The yeast surface expression in series [1] came out at 1.07.

Usually Kd stands for the equilibrium constant for the complex coming apart.
